Results from PMC4668074, “NDK Interacts with FtsZ and Converts GDP to GTP to Trigger FtsZ Polymerisation - A Novel Role for NDK” (PLoS ONE, 2015).

Tests used:
[1] = target: T1, 6xHis-MtFtsZ (Mycobacterium tuberculosis FtsZ) (Mycobacterium tuberculosis, UniProt P9WN95 1-379); assay: pull-down; details: both partners purified
T1 construct: also called MtZ
T1 sequence: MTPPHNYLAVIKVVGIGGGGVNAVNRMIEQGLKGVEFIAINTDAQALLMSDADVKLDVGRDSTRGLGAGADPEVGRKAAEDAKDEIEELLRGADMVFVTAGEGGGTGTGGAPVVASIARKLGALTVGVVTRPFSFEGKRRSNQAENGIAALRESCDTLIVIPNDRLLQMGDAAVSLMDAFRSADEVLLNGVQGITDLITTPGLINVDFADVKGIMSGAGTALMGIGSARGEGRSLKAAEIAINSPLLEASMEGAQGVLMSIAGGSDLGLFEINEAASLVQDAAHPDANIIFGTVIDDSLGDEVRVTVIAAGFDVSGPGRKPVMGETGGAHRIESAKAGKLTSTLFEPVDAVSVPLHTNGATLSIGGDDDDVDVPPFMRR

[2] = target: T2, 6xHis-EcFtsZ (FtsZ of E. coli) (E. coli, UniProt P0A9A6 1-383); assay: pull-down; details: both partners purified
T2 sequence (looked up): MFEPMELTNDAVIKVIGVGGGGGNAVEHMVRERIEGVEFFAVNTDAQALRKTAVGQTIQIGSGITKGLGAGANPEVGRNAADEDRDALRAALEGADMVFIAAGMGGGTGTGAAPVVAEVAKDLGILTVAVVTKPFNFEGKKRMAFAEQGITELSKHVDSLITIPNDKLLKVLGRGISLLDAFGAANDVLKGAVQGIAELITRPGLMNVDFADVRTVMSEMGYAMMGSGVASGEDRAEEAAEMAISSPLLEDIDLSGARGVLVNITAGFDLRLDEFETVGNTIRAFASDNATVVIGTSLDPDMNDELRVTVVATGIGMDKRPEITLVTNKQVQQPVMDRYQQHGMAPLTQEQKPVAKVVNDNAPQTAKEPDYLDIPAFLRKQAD

B1: GST-MtNDK (Mycobacterium tuberculosis nucleoside diphosphate kinase) (enzyme)
chain: MTERTLVLIKPDGIERQLIGEIISRIERKGLTIAALQLRTVSAELASQHYAEHEGKPFFGSLLEFITSGPVVAAIVEGTRAIAAVRQLAGGTDPVQAAAPGTIRGDFALETQFNLVHGSDSAESAQREIALWFPGA
notes: also called GST-NDK; MtNDK-Wt
B1: binds [1]; binds [2].
